# B1: h0311-L0H2 (antibody, human IgG4 S228P, kappa, V domains shown)
# VH: QVQLVQSGAEVKKPGSSVKVSCKASGYIFTDYNMHWVRQAPGQGLEWMGEINPNNGVVVYNQKFKGTTTLTVDKSTSTAYMELSSLRSEDTAVYYCTRALYHSNFGWYFDSWGQGTLVTVSS
# VL: EIVLTQSPATLSLSPGERATLSCKASQSVDYDGDSHMNWYQQKPGQAPRLLIYTASNLESGIPARFSGSGSGTDFTLTISSLEPEDFAVYYCQQGNEDPWTFGQGTKVEIKR
# notes: also called Ab15; huAb 0311-L0H2
# B2: h0302-L1H1 (antibody, human IgG4 S228P, kappa, V domains shown)
# VH: QVQLVQSGAEVKKPGSSVKVSCKASGYTFSDFNIHWVRQAPGQGLEWMGYINPYTDVTVYNEKFKGRVTITSDKSTSTAYMELSSLRSEDTAVYYCASYFDGTFDYALDYWGQGTLVTVSS
# VL: EIVLTQSPATLSLSPGERATLSCRASESVDNYGLSFMNWYQQKPGQAPRLLIYTASNLESGIPARFSGSGSRTDFTLTISSLEPEDFAVYYCQQSKELPWTFGQGTKVEIKR
# notes: also called Ab8; huAb 0302-L1H1
# B3: h0302-L0H2 (antibody, human IgG4 S228P, kappa, V domains shown)
# VH: QVQLVQSGAEVKKPGSSVKVSCKASGYTFSDFNIHWVRQAPGQGLEWIGYINPYTDVTVYNEKFKGRATLTSDKSTSTAYMELSSLRSEDTAVYYCASYFDGTFDYALDYWGQGTLVTVSS
# VL: EIVLTQSPATLSLSPGERATLSCRASESVDNYGLSFMNWYQQKPGQAPRLLIYTASNLESGIPARFSGSGSGTDFTLTISSLEPEDFAVYYCQQSKELPWTFGQGTKVEIKR
# notes: also called Ab10; huAb 0302-L0H2
# B4: h0311-L1H1 (antibody, human IgG4 S228P, kappa, V domains shown)
# VH: QVQLVQSGAEVKKPGSSVKVSCKASGYIFTDYNMHWVRQAPGQGLEWMGEINPNNGVVVYNQKFKGRVTITVDKSTSTAYMELSSLRSEDTAVYYCTRALYHSNFGWYFDSWGQGTLVTVSS
# VL: DIVLTQSPATLSLSPGERATLSCKASQSVDYDGDSHMNWYQQKPGQAPRLLIYTASNLESGIPARFSGSGSGADFTLTISSLEPEDFAVYYCQQGNEDPWTFGQGTKVEIKR
# notes: also called Ab14; huAb 0311-L1H1
# Tests used:
# cynoCSF1R ECD-Fc [1] = target: T1, cynoCSF1R ECD-Fc (cynomolgus); experiment: ELISA, plate coated with cynoCSF1R ECD-Fc
# T1 construct: also called cynomolgus CSF1R ECD
# Experimental: (§1) Ninety-six well clear-bottom ELISA plates were coated overnight with 1 μg/ml recombinant hCSF1R ECD.506-Fc (SEQ ID NO: 6; FivePrime Therapeutics) or Human M-CSF R Fc Chimera (R&D Systems) in PBS. The next morning, wells were washed four times with 0.05% Tween20 in PBS (PBST) and blocked with Blocker-Blotto (Pierce). Fifty μl of 0.5× serial dilutions of the humanized antibody or parental chimeric antibody, beginning with 2000 ng/ml, diluted 1:1 in Blocker-Blotto were added to the CSF1R-coated wells. After incubation at room temperature (RT) for 90 min, wells were washed four times with PBST, and a 1:5000 dilution of a peroxidase-conjugated Goat anti-Human kappa Light chain antibody (Sigma) in Blocker-Blotto was added to each well. After incubation at RT for 60 min, wells were washed four times with PBST, and 50 μl o-phenylenediamine dihydrochloride peroxidase substrate (Sigma) was added to each well. After incubation at RT for 30 min, A450 values of each well were read directly on a SpectraMaxPlus spectrophotometer with SoftMaxPro software (Molecular Devices).
# The binding curve for each humanized antibody binding to cynomolgus CSF1R ECD was determined as described above for human CSF1R, except the wells of the clear-bottom ELISA plates were coated overnight with 2 μg/ml recombinant cynoCSF1R ECD-Fc (FivePrime Therapeutics, SEQ ID NO: 8, but without the 19 amino acid leader sequence).
# cynoCSF1R ECD-Fc [2] = target: T1, cynoCSF1R ECD-Fc; experiment: competition ELISA, blocking of human IL34 binding to cynoCSF1R ECD-Fc
# hCSF1R ECD.506-Fc = target: T2, hCSF1R ECD.506-Fc (human); experiment: ELISA, plate coated with human CSF1R ECD-Fc
# T2 construct: also called human CSF1R ECD-Fc fusion protein; human CSF1R ECD
# Experimental: as §1
# mCSF1R ECD-Fc = target: T3, mCSF1R ECD-Fc (mouse); experiment: ELISA, plate coated with mCSF1R ECD-Fc, detection anti-human kappa-HRP, A450
# T3 construct: also called mouse CSF1R ECD
# Experimental: as §1
# The binding curve for each humanized antibody binding to mouse CSF1R ECD was determined as described above for human CSF1R, except the wells of the clear-bottom ELISA plates were coated overnight with 2 μg/ml recombinant mCSF1R ECD-Fc (FivePrime Therapeutics, SEQ ID NO: 93).
# hCSF1R ECD.506 = target: T4, hCSF1R ECD.506 (human, UniProt P07333 20-506); experiment: SPR Biacore T100, antibody captured on anti-human IgG, hCSF1R ECD.506 as analyte, 1:1 model
# T4 construct: also called human CSF1R ECD
# Experimental: The kₐ, kd, and KD for binding to human CSF1R ECD was determined for each of the humanized antibodies as follows.
# Binding kinetics of anti-CSF1R humanized antibodies to CSF1R ECD was determined using Biacore T100 Surface Plasmon Resonance (SPR) (GE Healthcare Life Sciences, Piscataway, N.Y.). Each of the humanized anti-CSF1R antibodies was captured on a CM5 sensor chip immobilized with anti-Human IgG antibody using the Human antibody capture kit (GE Healthcare Life Sciences, Piscataway, N.Y.) at 150 RU so that the Rmax value for hCSF1R ECD.506 (SEQ ID NO: 5) binding was 100 RU. Rmax values of less than 150 RU are recommended for accurately determining kinetic values. […] The association constant, dissociation constant, affinity, and binding capacity of each of the Fabs for human CSF1R ECD was calculated using the Biacore T100 Evaluation software package using the 1:1 binding model.
# cynoCSF1R ECD-Fc [3] = target: T1, cynoCSF1R ECD-Fc; experiment: competition ELISA, blocking of human CSF1 binding to cynoCSF1R ECD-Fc
# Experimental: The humanized antibodies, along with the parental chimeric antibodies (cAbs), were tested for their ability to block human CSF1 binding to human and cynomolgus CSF1R ECD, as follows.
# Recombinant Human CSF1 (M-CSF; R&D Systems) was biotinylated using an NH₂-Biotin Labeling Kit (Dojindo Molecular Technologies). One hundred μl of 1 μg/ml biotinylated CSF1 in PBST/0.1% BSA was added to the wells of Reacti-Bind Streptavidin coated plates (Pierce) pre-blocked with SuperBlock blocking buffer (Pierce) according to the manufacturer's instructions. Fifty μl of 0.5× serial dilutions of the humanized antibody or parental chimeric antibody, beginning with 2000 ng/ml, was incubated with 50 ng/ml hCSF1R ECD.506-Fc (SEQ ID NO: 6; FivePrime Therapeutics) or 50 ng/ml cynoCSF1R ECD-Fc (FivePrime Therapeutics, SEQ ID NO: 8, but without the 19 amino acid leader sequence) in 100 μl PBST/0.1% BSA for 90 min at RT, after which the admix was transferred to one or more wells of a ligand-coated plate. After 90 min at RT, wells were washed with PBST, and a 1:5000 dilution of an Fc-fragment-specific peroxidase-conjugated goat anti-human IgG (Jackson Immuno Research) in PBST/0.1% BSA was added to each well. After incubation at RT for 60 min, wells were washed with PBST/0.1% BSA, and o-phenylenediamine dihydrochloride peroxidase substrate (Sigma) was added to each well. After incubation at RT for 30 min, A450 values of each well were read directly on a SpectraMaxPlus spectrophotometer with SoftMaxPro software (Molecular Devices).
# [4] = target: human CSF1R on CSF1R (SEQ ID NO: 2)-transfected CHO cells (human, UniProt P07333 20-972); experiment: cell-based or functional assay
# Sequence of human CSF1R on CSF1R (SEQ ID NO: 2)-transfected CHO cells (P07333 20-972): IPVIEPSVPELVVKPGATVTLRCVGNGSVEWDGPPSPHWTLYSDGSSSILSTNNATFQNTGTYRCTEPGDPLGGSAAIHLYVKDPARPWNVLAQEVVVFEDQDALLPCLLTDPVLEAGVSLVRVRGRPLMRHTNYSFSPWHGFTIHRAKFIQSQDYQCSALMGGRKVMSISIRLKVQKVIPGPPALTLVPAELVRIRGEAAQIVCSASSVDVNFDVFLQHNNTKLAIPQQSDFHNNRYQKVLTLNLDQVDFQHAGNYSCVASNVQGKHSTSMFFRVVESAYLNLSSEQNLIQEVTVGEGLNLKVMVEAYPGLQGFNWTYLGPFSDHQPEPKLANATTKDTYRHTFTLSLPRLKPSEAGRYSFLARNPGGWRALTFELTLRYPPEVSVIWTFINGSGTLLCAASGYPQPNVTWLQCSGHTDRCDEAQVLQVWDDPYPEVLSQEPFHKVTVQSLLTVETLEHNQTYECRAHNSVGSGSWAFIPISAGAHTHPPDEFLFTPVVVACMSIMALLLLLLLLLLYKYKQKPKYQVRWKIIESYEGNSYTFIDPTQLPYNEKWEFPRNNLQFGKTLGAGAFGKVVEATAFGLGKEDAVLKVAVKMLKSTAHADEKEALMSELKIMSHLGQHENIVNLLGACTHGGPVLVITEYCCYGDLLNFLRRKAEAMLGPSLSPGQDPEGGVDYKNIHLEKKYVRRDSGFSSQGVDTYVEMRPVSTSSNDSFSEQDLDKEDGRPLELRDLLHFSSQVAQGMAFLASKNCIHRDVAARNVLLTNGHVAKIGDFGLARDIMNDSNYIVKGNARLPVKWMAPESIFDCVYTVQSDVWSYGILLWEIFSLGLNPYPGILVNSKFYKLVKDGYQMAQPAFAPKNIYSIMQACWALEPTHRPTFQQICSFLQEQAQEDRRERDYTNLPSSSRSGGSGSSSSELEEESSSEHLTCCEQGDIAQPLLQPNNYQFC
# T2 sequence (chain, as listed by the source limits assumed): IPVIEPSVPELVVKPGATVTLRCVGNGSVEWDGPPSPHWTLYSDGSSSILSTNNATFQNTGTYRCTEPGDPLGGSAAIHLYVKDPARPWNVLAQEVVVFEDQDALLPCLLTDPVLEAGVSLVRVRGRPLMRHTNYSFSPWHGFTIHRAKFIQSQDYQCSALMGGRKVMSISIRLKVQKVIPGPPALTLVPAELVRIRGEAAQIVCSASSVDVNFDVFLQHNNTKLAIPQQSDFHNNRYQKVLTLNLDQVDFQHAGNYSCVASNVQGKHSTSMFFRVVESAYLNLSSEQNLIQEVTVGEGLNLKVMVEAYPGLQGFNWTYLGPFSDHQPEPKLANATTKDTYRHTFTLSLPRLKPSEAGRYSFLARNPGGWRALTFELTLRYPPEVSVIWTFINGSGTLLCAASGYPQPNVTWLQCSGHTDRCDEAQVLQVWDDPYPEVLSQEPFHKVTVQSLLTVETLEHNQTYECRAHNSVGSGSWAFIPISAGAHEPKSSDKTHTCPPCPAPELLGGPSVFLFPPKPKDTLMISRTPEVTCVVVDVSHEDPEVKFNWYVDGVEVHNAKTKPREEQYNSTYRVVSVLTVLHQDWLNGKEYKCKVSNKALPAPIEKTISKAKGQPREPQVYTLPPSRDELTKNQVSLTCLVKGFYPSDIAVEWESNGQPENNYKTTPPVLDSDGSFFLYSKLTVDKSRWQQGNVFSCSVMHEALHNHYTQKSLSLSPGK
# T4 sequence (P07333 20-506): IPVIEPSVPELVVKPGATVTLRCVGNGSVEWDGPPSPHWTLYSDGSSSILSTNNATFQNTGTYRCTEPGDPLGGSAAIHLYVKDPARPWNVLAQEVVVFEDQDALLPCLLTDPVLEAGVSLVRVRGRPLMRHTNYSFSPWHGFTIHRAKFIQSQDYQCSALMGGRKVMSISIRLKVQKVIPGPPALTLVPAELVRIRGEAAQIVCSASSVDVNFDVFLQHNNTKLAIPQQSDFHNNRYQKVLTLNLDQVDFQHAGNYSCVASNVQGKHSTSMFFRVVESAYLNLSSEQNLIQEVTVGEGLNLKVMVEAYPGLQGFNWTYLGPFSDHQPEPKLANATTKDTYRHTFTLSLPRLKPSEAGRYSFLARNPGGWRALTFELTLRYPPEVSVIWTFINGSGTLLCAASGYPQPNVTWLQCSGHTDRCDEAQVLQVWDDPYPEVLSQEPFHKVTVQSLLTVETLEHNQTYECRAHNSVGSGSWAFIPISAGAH
# T1 sequence (chain, as listed by the source): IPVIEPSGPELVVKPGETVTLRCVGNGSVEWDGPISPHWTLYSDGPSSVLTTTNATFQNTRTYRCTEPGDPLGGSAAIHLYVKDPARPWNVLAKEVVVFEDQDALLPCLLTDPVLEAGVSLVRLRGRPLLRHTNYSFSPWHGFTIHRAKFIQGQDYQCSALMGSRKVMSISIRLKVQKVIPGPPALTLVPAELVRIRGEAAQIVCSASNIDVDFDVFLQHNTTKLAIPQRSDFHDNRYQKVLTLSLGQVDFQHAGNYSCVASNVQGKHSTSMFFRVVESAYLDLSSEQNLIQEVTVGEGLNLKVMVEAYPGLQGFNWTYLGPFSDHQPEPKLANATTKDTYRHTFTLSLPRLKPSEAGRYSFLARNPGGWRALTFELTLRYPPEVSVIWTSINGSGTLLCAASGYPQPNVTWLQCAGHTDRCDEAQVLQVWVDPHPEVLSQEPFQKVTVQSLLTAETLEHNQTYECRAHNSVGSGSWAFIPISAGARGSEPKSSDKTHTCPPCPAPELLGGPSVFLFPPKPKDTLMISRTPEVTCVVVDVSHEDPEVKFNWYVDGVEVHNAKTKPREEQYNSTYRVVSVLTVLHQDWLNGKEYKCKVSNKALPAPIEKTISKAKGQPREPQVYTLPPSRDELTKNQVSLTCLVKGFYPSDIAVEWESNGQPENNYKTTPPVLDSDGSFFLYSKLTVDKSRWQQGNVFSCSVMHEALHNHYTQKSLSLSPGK
# T3 sequence (chain, as listed by the source limits assumed): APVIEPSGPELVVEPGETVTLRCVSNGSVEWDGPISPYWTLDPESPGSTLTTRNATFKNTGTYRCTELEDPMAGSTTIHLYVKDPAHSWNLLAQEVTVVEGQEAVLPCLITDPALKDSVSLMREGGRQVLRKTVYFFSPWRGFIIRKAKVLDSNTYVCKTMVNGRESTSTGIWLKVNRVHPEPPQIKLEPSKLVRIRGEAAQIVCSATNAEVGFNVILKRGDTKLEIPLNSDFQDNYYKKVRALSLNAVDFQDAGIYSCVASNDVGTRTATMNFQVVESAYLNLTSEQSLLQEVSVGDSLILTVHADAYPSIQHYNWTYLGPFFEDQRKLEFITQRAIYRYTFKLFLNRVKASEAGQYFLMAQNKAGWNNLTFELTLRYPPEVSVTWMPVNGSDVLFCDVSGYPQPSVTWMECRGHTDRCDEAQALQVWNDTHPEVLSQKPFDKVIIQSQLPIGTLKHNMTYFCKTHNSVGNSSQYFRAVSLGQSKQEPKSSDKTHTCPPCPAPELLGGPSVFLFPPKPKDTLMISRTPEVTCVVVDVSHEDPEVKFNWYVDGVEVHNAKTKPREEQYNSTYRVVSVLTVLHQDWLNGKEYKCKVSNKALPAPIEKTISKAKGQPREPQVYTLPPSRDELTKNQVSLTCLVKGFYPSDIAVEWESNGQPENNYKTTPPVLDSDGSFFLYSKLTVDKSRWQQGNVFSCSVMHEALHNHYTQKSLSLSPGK
Binder,EC50 (cynoCSF1R ECD-Fc [1]),IC50 (cynoCSF1R ECD-Fc [2]),EC50 (hCSF1R ECD.506-Fc),binding result (mCSF1R ECD-Fc),Kd (hCSF1R ECD.506),koff (hCSF1R ECD.506),kon (hCSF1R ECD.506),IC50 (cynoCSF1R ECD-Fc [3]),"IC50, inhibition of CSF1-induced CSF1R phosphorylation (head prints 'Human CSF1/Human CSF1R ECD IC50') [4]","IC50, inhibition of IL34-induced CSF1R phosphorylation (head prints 'Human IL34/Human CSF1R ECD IC50') [4]"
B1,0.0175 µg/mL,0.0408 µg/mL,0.0115 µg/mL,no binding (tested: 2000 ng/ml),0.35 nM,0.000473 s⁻¹,1.34e+06 M⁻¹ s⁻¹,0.026 µg/mL,436 ng/mL,633 ng/mL
B2,1.06 µg/mL,0.676 µg/mL,0.0214 µg/mL,no binding (tested: 2000 ng/ml),1.17 nM,0.00404 s⁻¹,3.47e+06 M⁻¹ s⁻¹,0.0605 µg/mL,742 ng/mL,364 ng/mL
B3,0.155 µg/mL,0.248 µg/mL,0.0179 µg/mL,no binding (tested: 2000 ng/ml),0.53 nM,0.00179 s⁻¹,3.4e+06 M⁻¹ s⁻¹,–,438 ng/mL,474 ng/mL
B4,0.0309 µg/mL,0.0537 µg/mL,0.0143 µg/mL,no binding (tested: 2000 ng/ml),0.5 nM,0.000664 s⁻¹,1.32e+06 M⁻¹ s⁻¹,0.0247 µg/mL,508 ng/mL,667 ng/mL

# From patent US20220153851A1 (Five Prime, published 2022)
